Experimental findings from PMC10586629, “Single B cell transcriptomics identifies multiple isotypes of broadly neutralizing antibodies against flaviviruses” (PLOS Pathogens, 2023) are described below.

The assay deals with T1, wild-type DENV2 16681 prM/E expressed in HEK-293T cells (Dengue virus 2, strain 16681, UniProt P29990).
T1 construct: also called WT DENV2 E protein; wild-type prM/E
Briefly: flow cytometry on cells. To be noted: one partner purified. (Flow cytometry measures light scatter and fluorescence of single cells or particles in a stream.)

B1: F25.S02 IgG1 (antibody, V domains shown)
VH: QVQLVQSGAEVKKPGSSAKVSCKASGGTFSSYAISWVRQAPGQGLEWMGSIMPIFGTVNYAQKFQGRVTITADESTSTAYMELSRLRSEDTAVYFCARGWGGNYRSADLWIYFDLWGQGTLVTVSS
VL: QSALTQPRSVSGSPGQSVTISCTGTSSDVGGYKYVSWYQQHPGKAPKLMIYDVTKRPSGVPDRFSGSKSGNTASLTISGLQADDEADYYCCSYAGSYTHVVFGGGTKLTVL
As to B1, the binding result is “binds”.
